The results in this text go back to CN112794900A (2ND XIANGYA HOSPITAL CENTRAL SOUTH UNIV, dated 2021).

For assay [1], the target named is T1, cBIN1 Isoform II2 (cBIN1 exon1-13&18-20) (UniProt O00499-6 1-482).
T1 construct: domain: cBIN1 exon1-13&18-20; tags are unknown; also called 含有exon13的cBIN1 Isoform II2蛋白
T1 sequence (looked up): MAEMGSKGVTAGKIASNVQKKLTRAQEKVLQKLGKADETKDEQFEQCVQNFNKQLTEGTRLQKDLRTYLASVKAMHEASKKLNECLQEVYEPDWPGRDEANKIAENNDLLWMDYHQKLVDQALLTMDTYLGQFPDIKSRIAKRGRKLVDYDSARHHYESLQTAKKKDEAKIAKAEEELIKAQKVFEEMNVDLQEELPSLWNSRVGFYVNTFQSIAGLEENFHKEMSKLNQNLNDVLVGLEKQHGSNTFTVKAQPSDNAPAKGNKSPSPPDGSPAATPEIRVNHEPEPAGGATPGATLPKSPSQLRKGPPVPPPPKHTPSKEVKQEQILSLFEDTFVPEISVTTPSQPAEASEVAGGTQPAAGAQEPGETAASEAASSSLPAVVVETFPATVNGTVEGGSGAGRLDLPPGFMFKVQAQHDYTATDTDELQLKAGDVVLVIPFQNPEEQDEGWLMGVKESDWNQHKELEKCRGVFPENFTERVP
Nature of the assay: ELISA, antigen coated at 0.1μg/well, OD450.

The target of assay [2] is T2, cBIN1 Isoform II3 (cBIN1 exon 1-12&18-20) (UniProt O00499-7 1-439).
T2 construct: domain: cBIN1 exon 1-12&18-20; Tags are unknown; also called 缺失exon13的cBIN1 Isoform II3蛋白
T2 sequence (looked up): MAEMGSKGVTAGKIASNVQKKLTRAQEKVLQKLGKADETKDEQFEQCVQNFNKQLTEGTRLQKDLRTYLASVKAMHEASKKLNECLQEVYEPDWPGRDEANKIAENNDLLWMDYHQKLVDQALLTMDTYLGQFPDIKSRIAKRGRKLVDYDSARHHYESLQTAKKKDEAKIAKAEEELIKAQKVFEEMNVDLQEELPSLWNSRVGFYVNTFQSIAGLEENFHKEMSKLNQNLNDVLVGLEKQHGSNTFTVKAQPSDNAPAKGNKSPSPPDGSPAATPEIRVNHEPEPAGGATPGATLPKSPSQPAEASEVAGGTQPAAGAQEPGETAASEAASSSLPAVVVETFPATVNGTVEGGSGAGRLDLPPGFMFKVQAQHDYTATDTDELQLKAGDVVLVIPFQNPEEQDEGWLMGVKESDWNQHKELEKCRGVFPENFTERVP
Nature of the assay: ELISA, antigen coated at 0.1μg/well.

B1: 鼠源抗体 8G1-D7-F5 (抗人源cBIN1 exon13抗体) (antibody, V domains shown)
VH: EVQLQQSGAELVRPGASVKLSCTTSGFNIKDSYMHWVKQRPEQGLEWIGRIDPEDDDAVYAPKFQDRATMTADTSSNTAYLHLSSLTSDDTAVYYCTTSTLVATPWFFDVWGTGTTVTVSS
VL: DIQMTQTTSSLSASLGDRVTISCSASQDINNYLNWYQQKPDGTVKLLIYYTSTLHSGVPSRFSGSGSGTDYSLTITNLEPEDFATYYCQQYTHNLPWTFGGGTKLEIK
notes: Mouse hybridoma antibody; The printed light chain FR3 may lack a leading G; also called cBIN1抗体
In the case of B1, the concentration giving a half-maximal response (EC50) in assay [1] was determined as 0.058 µg/mL. In addition, the binding result in assay [2] was “no binding (tested: 10μg/ml起始浓度, 三倍稀释, 11个检测点)”.
